Reference: publication doi:10.1101/2020.09.02.280610

Molecular target: recombinant soluble canine IL-10 receptor alpha chain (extra-cytoplasmic domain of canine IL-10R1) (canine)
Assay: SPR

recombinant canine IL-10 (from UniProt P48411 20-181) (ligand)
EC80 (binding equilibrium constant): 51.4 nM
RU at 31.2 ng/mL: 211 RU
RU at 125 ng/mL (plateau): 1720 RU
